Measurements reported in PMC3486911 (PLoS Pathogens, 2012).
Values joined by “and” are separate entries in the source; they are usually repeats but may differ in a detail not shown here. Identical values can stand only once. Like-named read-outs stand apart in the source and are kept apart here.

How the values were obtained:
Assay in all cases: SPR
[1] = molecular target: V3 fHbp Gln134 mutant (to Ala) (Neisseria meningitidis) (UniProt E6MV22)
[2] = molecular target: V3 fHbp Asn48 mutant (to Ala) (Neisseria meningitidis)
[3] = molecular target: V3 fHbp Ile96 mutant (to Ala) (Neisseria meningitidis)
[4] = molecular target: V3 fHbp Val114 mutant (to Ala) (Neisseria meningitidis)
[5] = molecular target: V3 fHbp Thr128 mutant (to Ala) (Neisseria meningitidis)
[6] = molecular target: V3 fHbp Asp43 mutant (to Ala) (Neisseria meningitidis)
[7] = molecular target: V3 fHbp Ile122 mutant (to Ala) (Neisseria meningitidis)
[8] = molecular target: V3 fHbp Pro125 mutant (to Ala) (Neisseria meningitidis)
[9] = molecular target: V3 fHbp Ser44 mutant (to Ala) (Neisseria meningitidis)
[10] = molecular target: V3 fHbp Asn123 mutant (to Ala) (Neisseria meningitidis)
[11] = molecular target: V3 fHbp His190 mutant (to Ala) (Neisseria meningitidis)
[12] = molecular target: V3 fHbp Leu98 mutant (to Ala) (Neisseria meningitidis)
[13] = molecular target: V3 fHbp Lys127 mutant (to Ala) (Neisseria meningitidis)
[14] = molecular target: V3 fHbp Asp92 mutant (to Ala) (Neisseria meningitidis)
[15] = molecular target: V3 fHbp Asp126 mutant (to Ala) (Neisseria meningitidis)
[16] = molecular target: V3 fHbp Gln87 mutant (to Ala) (Neisseria meningitidis) (UniProt E6MV22)
[17] = molecular target: V1 fHbp (V1.p1), wild type (Neisseria meningitidis) (UniProt Q9JXV4)
[18] = molecular target: V3 fHbp Pro46 mutant (to Ala) (Neisseria meningitidis)
[19] = molecular target: V3 fHbp (V3.p28), wild type (Neisseria meningitidis) (UniProt E6MV22)
[20] = molecular target: V3 fHbp Ala99Glu (Neisseria meningitidis)
[21] = molecular target: V3 fHbp Val91 mutant (to Ala) (Neisseria meningitidis)
[22] = molecular target: V2 fHbp Thr304 mutant (to Ala) (Neisseria meningitidis)
[23] = molecular target: V1 fHbp Lys191-Ala (Neisseria meningitidis)
[24] = molecular target: V2 fHbp Lys264 mutant (to Ala) (Neisseria meningitidis)
[25] = molecular target: V2 fHbp Val311 mutant (to Ala) (Neisseria meningitidis)
[26] = molecular target: V2 fHbp Ser302 mutant (to Ala) (Neisseria meningitidis)
[27] = molecular target: V1 fHbp Arg195-Ala (Neisseria meningitidis)
[28] = molecular target: V1 fHbp Ile196-Ala (Neisseria meningitidis)
[29] = molecular target: V2 fHbp His203 mutant (to Ala) (Neisseria meningitidis)
[30] = molecular target: V1 fHbp (V1.p1), wild type (Neisseria meningitidis) (UniProt Q9JXV4); remark: listed apart in the source
[31] = molecular target: V1 fHbp Phe194-Ala (Neisseria meningitidis)
[32] = molecular target: V3 fHbp (V3.p28), wild type (Neisseria meningitidis) (UniProt E6MV22); remark: listed apart in the source
[33] = molecular target: V2 fHbp Leu199 mutant (to Ala) (Neisseria meningitidis)
[34] = molecular target: V2 fHbp Val196 mutant (to Ala) (Neisseria meningitidis)
[35] = molecular target: V2 fHbp Glu262 mutant (to Ala) (Neisseria meningitidis)
[36] = molecular target: V2 fHbp Thr304 mutant (to Ala) (Neisseria meningitidis); remark: listed apart in the source
[37] = molecular target: V2 fHbp Lys264 mutant (to Ala) (Neisseria meningitidis); remark: listed apart in the source
[38] = molecular target: V2 fHbp Val311 mutant (to Ala) (Neisseria meningitidis); remark: listed apart in the source
[39] = molecular target: V2 fHbp Ser302 mutant (to Ala) (Neisseria meningitidis); remark: listed apart in the source
[40] = molecular target: V2 fHbp His203 mutant (to Ala) (Neisseria meningitidis); remark: listed apart in the source
[41] = molecular target: V2 fHbp Lys268 mutant (to Ala) (Neisseria meningitidis)
[42] = molecular target: V1 fHbp (V1.p1), wild type (Neisseria meningitidis) (UniProt Q9JXV4); remark: listed apart in the source
[43] = molecular target: V3 fHbp (V3.p28), wild type (Neisseria meningitidis) (UniProt E6MV22); remark: listed apart in the source
[44] = molecular target: V2 fHbp (V2.p21), wild type (Neisseria meningitidis) (UniProt E6MV22)
[45] = molecular target: V2 fHbp Leu199 mutant (to Ala) (Neisseria meningitidis); remark: listed apart in the source
[46] = molecular target: V2 fHbp Gln191 mutant (to Ala) (Neisseria meningitidis)
[47] = molecular target: V1 fHbp Lys191-Ala (Neisseria meningitidis); remark: listed apart in the source
[48] = molecular target: V1 fHbp His203-Ala (Neisseria meningitidis)
[49] = molecular target: V1 fHbp Arg195-Ala (Neisseria meningitidis); remark: listed apart in the source
[50] = molecular target: V1 fHbp Ile196-Ala (Neisseria meningitidis); remark: listed apart in the source
[51] = molecular target: V1 fHbp Gln193-Ala (Neisseria meningitidis)
[52] = molecular target: V1 fHbp (V1.p1), wild type (Neisseria meningitidis) (UniProt Q9JXV4); remark: listed apart in the source
[53] = molecular target: V1 fHbp Phe194-Ala (Neisseria meningitidis); remark: listed apart in the source

human factor H CCP 6 and 7 (fH67) (domain or fragment)
Kd [1]: 2.65 nM | Kd [2]: 3.65 nM | Kd [3]: 14.5 nM | Kd [4]: 3.25 nM | Kd [5]: 4.2 nM | Kd [6]: 3.2 nM | Kd [7]: 10.2 nM | Kd [8]: 3.3 nM | Kd [9]: 9.9 nM | Kd [10]: 8 nM | Kd [11]: 3.35 nM | Kd [12]: 87 nM | Kd [13]: 2.95 nM | Kd [14]: 4.75 nM | Kd [15]: 6.4 nM | Kd [16]: 0.715 nM | Kd [17]: 2.05 nM | Kd [18]: 0.028 nM | Kd [19]: 2.35 nM | Kd [20]: 74.5 nM | Kd [21]: 6.05 nM | Kd [22]: 7.9 nM and 8.5 nM | Kd [23]: 4.5 nM and 3.8 nM | Kd [24]: 9.5 nM and 8.6 nM | Kd [25]: 7 nM and 7.9 nM | Kd [26]: 3.7 nM and 4.4 nM | Kd [27]: 360 nM and 75 nM | Kd [28]: 1.4 nM and 1.6 nM | Kd [29]: 2.5 nM and 2.8 nM | Kd [30]: 2.7 nM and 3.1 nM and 2.6 nM | Kd [31]: 6 nM and 6.3 nM | Kd [32]: 2.8 nM and 3 nM and 2.9 nM | Kd [33]: 16 nM and 15 nM | Kd [34]: 23 nM | Kd [35]: 5.3 nM | Kd [36]: 8.2 nM | Kd [37]: 9.05 nM | Kd [38]: 7.45 nM | Kd [39]: 4.05 nM | Kd [40]: 2.65 nM | Kd [41]: 2.25 nM | Kd [42]: 2.85 nM | Kd [43]: 2.95 nM | Kd [44]: 2.15 nM and 1.85 nM | Kd [45]: 15.5 nM | Kd [46]: 2.6 nM | Kd [47]: 4.15 nM | Kd [48]: 1.7 nM | Kd [49]: 218 nM | Kd [50]: 1.5 nM | Kd [51]: 4.75 nM | Kd [52]: 2.8 nM and 2.35 nM and 2.45 nM | Kd [53]: 6.15 nM
